From patent US20050112698A1 (Bayer, published 2005)

Key:
human Stem Cell Factor [1] = target: T1, human Stem Cell Factor (human, UniProt P21583 26-189); assay: cell-based or functional assay
Cynomolgus Monkey SCF [2] = target: T2, Cynomolgus Monkey SCF (cynomolgus monkey, UniProt A0A7N9CAX5 26-189); assay: cell-based or functional assay
rat Stem Cell Factor = target: T3, rat Stem Cell Factor (rat, UniProt P21581 26-189, limits assumed); assay: cell-based or functional assay
T3 sequence (looked up): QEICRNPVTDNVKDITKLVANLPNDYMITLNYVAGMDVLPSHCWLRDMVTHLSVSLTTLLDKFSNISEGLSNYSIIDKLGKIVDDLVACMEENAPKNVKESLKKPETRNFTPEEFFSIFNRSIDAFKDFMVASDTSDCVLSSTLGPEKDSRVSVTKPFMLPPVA

human Stem Cell Factor [3] = target: T1, human Stem Cell Factor; assay: cell-based or functional assay; remark: listed apart in the source
human Stem Cell Factor [4] = target: T1, human Stem Cell Factor; assay: BIAcore, Fab on immobilized SCF
human Stem Cell Factor [5] = target: T1, human Stem Cell Factor; assay: cell-based or functional assay; remark: listed apart in the source
human Stem Cell Factor [6] = target: T1, human Stem Cell Factor; assay: cell-based or functional assay; remark: listed apart in the source
Cynomolgus Monkey SCF [7] = target: T2, Cynomolgus Monkey SCF; assay: cell-based or functional assay; remark: listed apart in the source
human Stem Cell Factor [8] = target: T1, human Stem Cell Factor; assay: BIAcore, Affinity Estimation, Fab
Cynomolgus Monkey SCF [9] = target: T2, Cynomolgus Monkey SCF; assay: SPR BIAcore 2000, Fab over 185 RU immobilized cSCF
Protocol: (§1) Affinity measurements were carried out on a BIAcore 2000 (Biacore) at 25° C. […] Purified Fab's were diluted in HBS-EP running buffer at concentrations ranging from 1.95 to 125 nM. A volume of 100 μl was injected using a flow rate of 50 μl/min in Kinject mode. After a 10 min dissociation, 50 μl of 10 mM Glycine, pH 2.5 and 25 μl of 10 mM Glycine, pH 2.0 was injected using a flow rate of 100 μl/min. All samples were run in duplicate. […] Cynomologus monkey SCF was diluted in HBS-EP running buffer at concentrations ranging from 15.6 to 500 nM and 150 μl injected at a flow rate of 50 μl/min. After a 15 min dissociation, 50 μl of 10 mM Glycine, pH 2.5, and 25 μl of 10 mM Glycine, pH 1.5 was injected using a flow rate of 100 μl/min. All samples were run in duplicate. The data was globally fit to the 1 to 1 binding model using BIAevaluation software. The raw experimental data were corrected for instrumental and bulk solvent artifacts by double referencing using both activated and blocked surfaces as controls.
(§2) To evaluate the binding properties of anti-SCF Fabs selected from affinity optimization of the CDR3 loop with SCF, the real time interaction was measured using surface plasmon resonance with the BIAcore 2000. […] The improvement in Kd's are primarily governed by a substantial reduction in the off-rate (koff). […] The affinity constants for Fab binding to human SCF were slightly lower than those Kd's for cynomologus monkey SCF. The panning design, with lower antigen concentrations and extensive washing steps, favors off-rate selection. The affinity of the A2-G8 clone in an IgG vector was measured using the IgG immobilized to the surface of the CM5 chip.

Cynomolgus Monkey SCF [10] = target: T2, Cynomolgus Monkey SCF; assay: competition ELISA: cSCF binding to coated human SCFR, Fab 3.1 µg/ml
Protocol: The extracts containing Fab were also tested for the ability to inhibit SCF binding to the SCF receptor. ELISA plates were coated overnight with 2 μg/ml human SCFR (R&D Systems, Minneapolis, Minn.) in PBS at 4° C. After washing with TBS-T, the plate was blocked with 5 mg/ml BSA in PBS. The extract was diluted 1/5 in PBS buffer containing 12.5 ng/ml cSCF and 1 mg/ml BSA. After a 1 hr incubation at room temperature, 100 μl was added to the blocked ELISA plate and incubated an additional hour. The plate was washed 5 times with TBS-T, and 100 μl of a 0.4 μg/ml solution of anti-SCF (R&D Systems) in 1 mg/ml BSA in PBS was added. After 1 hour the plate was washed and incubated with anti-Mouse-HRP (Sigma, St. Louis, Mo.). The plate was developed with BM Blue POD substrate (Roche Diagnostics, Chicago, Ill.) and read at 370 nm.
(§3) TABLE 12 Sequences of the CDR3 Vk1 Region of Selected Antibody Clones with Comparison of koff and SCF Inhibitory Activity The off-rates were determined using a high density surface CM5 chip (5000 RU of immobilized cSCF) on BIAcore and are shown with comparison to the original A2-G8 clone. […] The IC₅₀ in the TF-1 proliferation assay was based on an average of two assays with the exception of the A2-G8-IgG (n = 5).

Cynomolgus Monkey SCF [11] = target: T2, Cynomolgus Monkey SCF; assay: SPR BIAcore, initial screening (high RU of immobilized antigen, low flow rate)
Protocol: Analysis of Fab binding to cSCF was performed by surface plasmon resonance using a BIAcore 2000 (Biacore, Piscataway, N.J.), according to the manufacturer's instructions and a CM5 chip (Biacore) coated with cSCF. For amine coupling, a research grade CM5 chip was activated using the standard NHS/EDC procedure. Cynomologus monkey SCF was diluted to 20 μg/ml in 10 mM NaAcetate, pH 5.0, and a total of 5000 RU's were coupled to channel 2 of the sensor surface. The remaining active sites were quenched by the addition of 1M ethanolamine, pH 8.0. Channel 1 was subjected to the coupling procedure in the absence of protein and was used as a reference surface. […] The koff was calculated from a single concentration of Fab using BIAevaluation software (Biacore).
The koffrates determined using kinetic conditions (low RU's of immobilized antigen and high flow rates) on the BIAcore gave higher values than those koff's determined under non-kinetic conditions used during the initial screening procedure (high RU's of immobilized antigen and low flow rates). This is especially apparent for the A2-G8 Fab, where a koff of 6×10⁻³ sec⁻¹ was measured during the initial screening process, compared to a koff value of 1×10⁻² sec⁻¹ measured using kinetic parameters. […] The koff rates determined in the initial screening process, therefore, should not be considered absolute values but a ranking with other Fabs.

Cynomolgus Monkey SCF [12] = target: T2, Cynomolgus Monkey SCF; assay: SPR BIAcore, 5000 RU immobilized cSCF, off-rate ranking; high density chip (5000 RU cSCF), off-rate ranking
Protocol: as §3
Analysis of Fab binding to cSCF was performed by surface plasmon resonance using a BIAcore 2000 (Biacore, Piscataway, N.J.), according to the manufacturer's instructions and a CM5 chip (Biacore) coated with cSCF. For amine coupling, a research grade CM5 chip was activated using the standard NHS/EDC procedure. Cynomologus monkey SCF was diluted to 20 μg/ml in 10 mM NaAcetate, pH 5.0, and a total of 5000 RU's were coupled to channel 2 of the sensor surface. The remaining active sites were quenched by the addition of 1M ethanolamine, pH 8.0. Channel 1 was subjected to the coupling procedure in the absence of protein and was used as a reference surface. Extracts were diluted 1/5 in HBS-EP running buffer and injected for 2 min using a flow rate of 20 μl/min. The surface was regenerated by two consecutive injections of 25 μl, 10 mM glycine, pH 2.5, using a flow rate of 100 μl/min. The koff was calculated from a single concentration of Fab using BIAevaluation software (Biacore).

human Stem Cell Factor [13] = target: T1, human Stem Cell Factor; assay: cell-based or functional assay; remark: listed apart in the source
Cynomolgus Monkey SCF [14] = target: T2, Cynomolgus Monkey SCF; assay: SPR BIAcore 2000, cSCF over 550 RU immobilized IgG
Protocol: as §1, §2

Cynomolgus Monkey SCF [15] = target: T2, Cynomolgus Monkey SCF; assay: SPR BIAcore, off-rate (legend: 5000 RU immobilized cSCF); Table 12 off-rate list (legend: immobilized cSCF)

T1 sequence (P21583 other isoform, or with tags, fused parts or gaps limits assumed): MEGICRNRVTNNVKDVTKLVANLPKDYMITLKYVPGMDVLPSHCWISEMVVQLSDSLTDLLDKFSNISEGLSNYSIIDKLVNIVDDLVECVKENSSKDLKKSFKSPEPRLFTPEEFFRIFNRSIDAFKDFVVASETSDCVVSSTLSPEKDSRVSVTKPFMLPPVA

B1: Fab A2 (Fab, V domains shown)
VH: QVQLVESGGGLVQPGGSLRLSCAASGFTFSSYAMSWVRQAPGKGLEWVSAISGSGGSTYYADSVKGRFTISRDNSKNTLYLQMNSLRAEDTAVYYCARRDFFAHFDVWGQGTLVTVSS
VL: DIQMTQSPSSLSASVGDRVTITCRASQGISSYLAWYQQKPGKAPKLLIYAASSLQSGVPSRFSGSGSGTDFTLTISSLQPEDFATYYCQQYSGMPYTFGQGTKVEIK
notes: HuCAL Fab and parent of the A2-xx clones; It carries FLAG and Strep tags
percent inhibition of SCF-induced TF-1 proliferation at 200 ug/ml Fab (human Stem Cell Factor [1]): > 100%
IC50, inhibition of cyno SCF in TF-1 proliferation (Cynomolgus Monkey SCF [2]): 20 to 60 µg/mL
percent inhibition of SCF-induced TF-1 proliferation at 200 ug/ml Fab (Cynomolgus Monkey SCF [2]): > 100%
IC50, inhibition of rat SCF in TF-1 proliferation (rat Stem Cell Factor): 20 to 60 µg/mL
percent inhibition of SCF-induced TF-1 proliferation at 200 ug/ml Fab (rat Stem Cell Factor): > 100%
Efficacy IC50 (TF-1 proliferation assay, Fab) (human Stem Cell Factor [3]): 29 µg/mL
Kd (human Stem Cell Factor [4]): 65.7 nM

B2: Fab A2-G8 (Fab, V domains shown)
VH: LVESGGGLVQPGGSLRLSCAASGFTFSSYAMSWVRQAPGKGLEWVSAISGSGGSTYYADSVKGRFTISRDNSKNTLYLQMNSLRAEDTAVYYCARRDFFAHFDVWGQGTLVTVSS
VL: QMTQSPSSLSASVGDRVTITCRASQGIRGYLGWYQQKPGKAPKLLIYSASSLQSGVPSRFSGSGSGTDFTLTISSLQPEDFATYYCQQYSGMPYTFGQGTKVEIKR
notes: Fab format; also called anti-SCF Fab A2-G8; parent Fab A2-G8
TF-1 Fab assay IC50 (human Stem Cell Factor [5]): 5 µg/mL
IC50 TF-1 huSCF Assay (human Stem Cell Factor [6]): 2.36 µg/mL
IC50 TF-1 cynoSCF Assay (Cynomolgus Monkey SCF [7]): 5.7 µg/mL
Kd (human Stem Cell Factor [8]): 9 nM
Kd (Cynomolgus Monkey SCF [9]): 25.1 nM
koff (Cynomolgus Monkey SCF [9]): 0.0106 s⁻¹
kon (Cynomolgus Monkey SCF [9]): 420000 M⁻¹ s⁻¹
% Inhibition SCF Binding ELISA Assay (Cynomolgus Monkey SCF [10]): 30%
koff (Cynomolgus Monkey SCF [11]): 0.006 s⁻¹
koff (Cynomolgus Monkey SCF [12]): 0.00306 s⁻¹

B3: A2-G8 IgG (antibody, V domains shown)
VH: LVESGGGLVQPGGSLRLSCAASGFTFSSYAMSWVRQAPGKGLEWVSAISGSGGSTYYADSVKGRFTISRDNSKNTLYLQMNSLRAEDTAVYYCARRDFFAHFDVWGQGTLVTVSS
VL: B2 VL
notes: Human IgG1 kappa expressed in HKB11 cells; also called A2-G8 Mab; SCF antibody A2-G8
Eosinophil IgG assay IC50 (human eosinophil survival) (human Stem Cell Factor [5]): 1.5 µg/mL
TF-1 IgG assay IC50 (human Stem Cell Factor [5]): 1 µg/mL
IC50, Cyno Eos (SCF-stimulated cyno eosinophil survival) (human Stem Cell Factor [13]): 3 µg/mL
IC50, Human Eos (SCF-stimulated human eosinophil survival) (human Stem Cell Factor [13]): 1.5 µg/mL
IC50, TF-1 (SCF-induced TF-1 proliferation) (human Stem Cell Factor [13]): 1 µg/mL
IC50 TF-1 huSCF Assay (human Stem Cell Factor [6]): 2.32 µg/mL
IC50 TF-1 cynoSCF Assay (Cynomolgus Monkey SCF [7]): 11.2 µg/mL
Kd (Cynomolgus Monkey SCF [14]): 35.8 nM
koff (Cynomolgus Monkey SCF [14]): 0.0013 s⁻¹
kon (Cynomolgus Monkey SCF [14]): 36300 M⁻¹ s⁻¹
koff (Cynomolgus Monkey SCF [15]): 0.0013 s⁻¹
